Data reported in patent publication US20230031280A1, “GLP-2 FUSION POLYPEPTIDES AND USES FOR TREATING AND PREVENTING GASTROINTESTINAL CONDITIONS” (SHIRE-NPS PHARMACEUTICALS, INC., priority 2017, published 2023).

Experiments:
[1] = Projection of intravenous and subcutaneous PK parameters for humans; design: species or system human
Procedure: While a dose of 30 μg/kg once weekly (QW) is projected from the cynomolgus monkey PK data, the dose should be ten times higher (300 μg/kg) to adjust for the difference in in vivo potency.

[2] = Rat pharmacokinetics, intravenous dosing; assay type: in vivo, Sprague-Dawley rats; settings: single dose 1 mg/ml
Procedure: (§1) In the rat, four pharmacokinetic parameters were measured for Gattex® (a GLP-2 peptide having the A2G mutation): CL, Vc, Vt and Q. The same pharmacokinetic parameters were also measured for GLP-2 peptibodies A, B, E, J, K, L, M, O and P. The data is shown in Table 4. Male Sprague-Dawley rats (3 animals per group) were injected intravenously either via a jugular vein or tail vein catheter. A singles dose of test article was injected at a dose level of 1 mg/ml. The test articles were formulated in PBS pH 7.4 at a concentration of Blood samples were taken 0.083, 0.167, 0.33, 0.5, 1, 2, 6, 24, 48, 72, 120, 168, 240, and 336 hours post dose. Blood samples were collected into heparinized tubes and centrifuged for 5 minutes at 2000 xg within 10 minutes of collection. 100 μL of plasma were transferred to a 1.5 ml Eppendorf tube containing 2 μL of 50 mM PMSF. After mixing, the plasma samples were frozen at −80° C. until analysis.

[3] = Cynomolgus monkey pharmacokinetic study; assay type: in vivo, cynomolgus monkeys; settings: 0.75 mg/kg
Procedure: Pharmacokinetics studies of teduglutide, GLP-2 Peptibody B and GLP-2 Peptibody K were formed in cynomolgus monkeys with citrulline assayed as a biomarker of GLP-2 concentration. In the study, 12.5 nmol/kg teduglutide was administered subcutaneously to a group of 6 male cynomolgus monkeys at day 1. Then for one set of 2 monkeys, 25 nmol/kg GLP-2 Peptibody B was administered intravenously at day 7, day 21, day 28, day 35, and day 42. For another set of 3 monkeys, 25 nmol/kg GLP-2 Peptibody B was administered subcutaneously at day 7, day 21, day 28, day 35, and day 42. For another set of monkeys, 5 nmol/kg GLP-2 Peptibody K was administered intravenously (2 monkeys) and subcutaneously (3 monkeys) at day 7, day 21, day 28, day 35, and day 42. For another set of monkeys, 25 nmol/kg GLP-2 Peptibody K was administered subcutaneously (3 monkeys) and intravenously (2 monkeys) at day 7, day 21, day 28, day 35, and day 42.

[4] = NanoDSF melting temperature / thermal stability; assay type: physicochemical
Procedure: Each of the GLP-2 peptibodies was tested by determining melting temperature with nanodifferential scanning fluorimetry (NanoDSF). NanoDSF is a measurement of protein stability over a range of temperatures, with a temperature ramp employed. The stability of tryptophan is measured by fluorescence, as reflected in a ratio of fluorescence at 350 nm to fluorescence at 330 nm. From the assay, one or more melting temperatures are determined. Because a protein in a certain state is understood to have a melting temperature, the number of melting temperatures observed reflects the number of different states.
(§2) Stability analysis was then performed using SEC-MALS and NanoDSF. For SEC-MALS, a Sepax Zenix C-150 column was used. The mobile phase buffer was 1× PBS with a final concentration of 400 mM NaCl. The flow rate was 0.8 mL per minute. 20 micrograms of total protein was injected. For NanoDSF, 10 microliters of sample was used, without normalization of the samples.
as §2

[5] = Rat pharmacokinetics, subcutaneous dosing; assay type: in vivo, Sprague-Dawley rats; settings: single dose 1 mg/ml
Procedure: as §1, with “5.” for “4.”, “subcutaneously into the intra-scapular region of the animal.” for “intravenously either via a jugular vein or tail vein catheter.”, “[…]” for “1.5”, “mixing” for “mixing,”, “analysis. Meso Scale Discovery (MSD) ELISA was undertaken to assay for the concentration of the GLP-2 peptibodies.” for “analysis.”
A sandwich immunoassay was developed using either an anti-Human IgG1 Fc antibody or an anti-human albumin antibody for capture of the peptibody and a sulfotag labeled anti GLP-2 antibody for detection.

GLP-2 peptibody K: GLP-2[A2G]-GGGGSGGGGSGGGGS linker-IgG1 Fc (LALA) with C-terminal lysine; SEQ ID NO: 10
Vc [1]: 0.0385 L/kg | Vt [1]: 0.0361 L/kg | ka [1]: 1.40 day⁻¹ | CL (value in parentheses) ([1]; exponent on CL 0.85, monkey 3.5 kg, human 70 kg): 0.642 mL/h/kg | CL ([1]; first value of cell): 1.01 mL/h/kg | F ([1]; first value of cell): 86% | Q ([1]; first value of cell): 2.35 mL/h/kg | F (value in parentheses) ([1]; value in parentheses): 60% | Q (value in parentheses) ([1]; value in parentheses): 1.5 mL/h/kg | CL [2]: 2.24 mL/h/kg | Q [2]: 2.54 mL/h/kg | Vc [2]: 0.0422 L/kg | Vt [2]: 0.0464 L/kg | CL ([3]; MDPK, intravenous): 0.804 mL/h/kg | Q ([3]; MDPK, intravenous): 1.12 mL/h/kg | Vc ([3]; MDPK, intravenous): 0.0365 L/kg | Vt ([3]; MDPK, intravenous): 0.0339 L/kg | CL/F ([3]; MDPK, subcutaneous): 1.35 mL/h/kg | Vc ([3]; MDPK, subcutaneous): 0.111 L/kg | association constant (ka) ([3]; MDPK, subcutaneous): 1.70 day⁻¹ | CL ([3]; SDPK, intravenous): 0.717 mL/h/kg | Q ([3]; SDPK, intravenous): 1.21 mL/h/kg | Vc ([3]; SDPK, intravenous): 0.0323 L/kg | Vt ([3]; SDPK, intravenous): 0.0329 L/kg | CL/F ([3]; SDPK, subcutaneous): 1.37 mL/h/kg | Vc ([3]; SDPK, subcutaneous): 0.107 L/kg | association constant (ka) ([3]; SDPK, subcutaneous): 1.56 day⁻¹ | NanoDSF melting temperature 1 ([4]; first transition): 1 = 67.5 °C | NanoDSF melting temperature 2 ([4]; second transition): 2 = 79.7 °C | CL [5]: 2.83 mL/h/kg | Vc [5]: 0.114 L/kg | ka [5]: K (0.62 ka/day,
